Reference: article PMC3126804

What was measured:
[1] = target: heat shock protein 60 (Hsp60) on human ileocecal epithelial HCT-8 cells (human (endogenous in HCT-8)) (UniProt P10809); experiment: adhesion of protein-coated fluospheres to cell monolayers; sulphate-modified fluospheres (1.0 µm) coated with 160 µg/mL of each purified protein (average bound 140 µg/ml) or 0.1% BSA, added to confluent HCT-8 monolayers (cells to spheres about 1:100), 2 h at 37°C, washed five times, read at 485/538 nm; also after pretreatment of cells with anti-Hsp60 MAb (1 µg/well, 1 h)
[2] = target: heat shock protein 60 (Hsp60) on human ileocecal epithelial HCT-8 cells (human (endogenous in HCT-8)) (UniProt P10809); experiment: adhesion of protein-coated fluospheres to cell monolayers; as the fluosphere assay on HCT-8 monolayers, but protein concentrations adjusted to have an equal number of molecules of each protein before immobilising on beads
[3] = target: LAP subdomain N2 (Gly224–Gly411) (Listeria monocytogenes (strain F4244)); experiment: ELISA; called immunofluorescence assay in microtiter plates: LAP proteins immobilised at 62.5–500 ng/100 µL (0.05 M sodium carbonate, pH 9.6) in Immulon 4HBX plates; Hsp60 100 µL of 2.4 µg/mL, RT 1.5 h; anti-Hsp60, HRP anti-mouse, fluorescent substrate Super Red; controls subtracted; KD from the 1-site binding equation (Prism 3)
[4] = target: Listeria adhesion protein (LAP), full-length (Listeria monocytogenes); experiment: as above

Substance	mean fluorescence unit (fluorescence unit) [1]	mean fluorescence unit (fluorescence unit) [2]	Kd [3] [nM]	Kd [4] [nM]
LAP subdomain N2 (Gly224–Gly411) (domain or fragment)	1400	1360	–	–
Listeria adhesion protein (LAP), full-length (natural protein)	999	1380	–	–
heat shock protein 60 (Hsp60), purified (from UniProt P10809 27-573) (natural protein)	–	–	9.51	7.17
